Among the data in PMC4818545 are Kd values, retold here.

Test [1] has as its target recombinant (β15–66)2 fragment. Description: ELISA. On the technique in general: An ELISA detects its analyte on a solid surface through an enzyme-linked reagent.
Test [2] concerns the target recombinant (β15–66)2 fragment. Description: ELISA. The source holds these as a separate data set.
Test [3] concerns the target recombinant (β15–66)2 fragment. Description: ELISA. The source holds these as a separate data set.
Test [4] has as its target VLDLR(1–8)HT (human) (UniProt P98155). Description: SPR.
Test [5] has as its target VLDLR(2–4)HT (human) (UniProt P98155). Description: SPR. In general terms: Surface plasmon resonance follows binding to a sensor surface in real time, without labels.
Test [6] has as its target VLDLR(1–4)HT (human) (UniProt P98155). Description: SPR.
Test [7] concerns the target VLDLR(2–3)HT (human) (UniProt P98155). Description: SPR.
Test [8] concerns the target fibrin (β15-66)2 fragment 15-66 (Homo sapiens) (UniProt P02675). Description: ELISA. The settings on record: cited from earlier work.

For orientation: Kd means a measure of binding affinity in units of concentration.

Like-named read-outs stand apart in the source and are kept apart here.

Sequence of UniProt P02675 (P02675 15-66): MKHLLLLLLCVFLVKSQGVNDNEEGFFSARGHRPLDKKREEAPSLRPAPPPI

With “VLDLR(1–4)HT (from UniProt P98155 28-190) (domain or fragment)”, in test [1], the Kd worked out at 60 nM.

As to “VLDLR(1–8)HT (from UniProt P98155 28-355) (domain or fragment)”, the values for the dissociation constant (Kd) in test [1], in test [2] and in test [3] were 16.3 nM, 3.4 nM and 21 nM, respectively.

In the case of “VLDLR(2–3)HT (from UniProt P98155 69-151) (domain or fragment)”, the equilibrium dissociation constant (Kd) in test [1] is 78 nM.

“recombinant (β15–66)2 fragment (domain or fragment)”: the Kd was 3.1 nM in test [4], 4.6 nM in test [5], 3.7 nM in test [6] and 9.5 nM in test [7].

As to sVLDLR ECD (from UniProt P98155), the Kd in test [8] is 5.7 nM.

With “soluble form of human VLDL receptor, sVLDLRHT (from UniProt P98155 28-797)”, the results for the Kd in test [1] and in test [2] were 16.4 nM and 2.5 nM, respectively.
